Data published in patent US6733762.
Where “and” joins values, the source holds several entries; their conditions need not be identical. Identical values can stand only once.

Columns and labels:
[1] = target: Zot receptor / Zot binding sites on human monocytes/macrophages (CD14+) (human)
[2] = target: Zot binding sites on human T lymphocytes (CD3+) (human); experiment: flow cytometry, MESF calibration, several volunteers
[3] = target: Zot receptor / Zot binding sites on human monocytes/macrophages (CD14+) (human); experiment: as above
[4] = target: Zot binding sites on human T lymphocytes (CD3+) (human); experiment: real-time flow cytometry at 37 C, Zot-FITC 40 ug/ml, cells gated on CD3
[5] = target: Zot receptor / Zot binding sites on human monocytes/macrophages (CD14+) (human); experiment: real-time flow cytometry at 37 C, Zot-FITC 40 ug/ml, cells gated on CD14
[6] = target: Zot receptor / Zot binding sites on human monocytes/macrophages (CD14+) (human); experiment: flow cytometry, MESF calibration, several volunteers; reference: lymphocytes
[7] = target: Zot binding sites on human T lymphocytes (CD3+) (human); experiment: flow cytometry, MFI converted with Quantum 26 MESF kit, saturation conditions
[8] = target: Zot receptor / Zot binding sites on human monocytes/macrophages (CD14+) (human); experiment: as above
[9] = target: Zot receptor / Zot binding sites on human monocytes/macrophages (CD14+) (human); experiment: 4-color flow cytometry, Zot-FITC 40 ug/ml on PBMC; reference: T or B lymphocytes
[10] = target: Zot binding sites on human T lymphocytes (CD3+) (human)
[11] = target: Zot receptor / Zot binding sites on human monocytes/macrophages (CD14+) (human); remark: listed apart in the source

6xHis-Zot fusion protein (unlabeled) (from UniProt P38442 1-399)
% suppression of Zot-FITC mean fluorescence intensity [1]: 24% and 43%

Zot-FITC (6xHis-Zot conjugated to fluorescein isothiocyanate, Examples 4-7) (from UniProt P38442 1-399)
Zot binding sites/cell (mean of several volunteers) (binding sites/cell) [2]: 10700 | Zot binding sites/cell (mean of several volunteers) (binding sites/cell) [3]: 105000 | time to reach binding equilibrium [4]: < 2 min | time to reach binding equilibrium [5]: < 2 min | fold of binding sites/cell against lymphocytes [6]: 10 fold | Zot-binding sites/cell (binding sites/cell) [7]: 9000 | Zot-binding sites/cell (binding sites/cell) [8]: 106000 | fold of binding against T or B lymphocytes [9]: 5 fold and 8 fold

purified Zot (cleaved from the MBP-Zot fusion protein with Factor Xa) (from UniProt P38442 9-399)
% decrease of Zot-FITC binding [10]: 33% | % decrease of Zot-FITC binding [11]: 33%
